Measurements as given in US9987241B2, “Enzyme conjugate and prodrug cancer therapy” (The Board of Regents of the University of Oklahoma, priority 2014, dated 2018).

B1: mCGL-AI: fusion protein of mouse cystathione-γ-lyase mutant with three mutations (SEQ ID NO:3) and annexin I; post-cleavage SEQ ID NO:11 (protein)
chain: MHHHHHHSSGLVPRGSGMKETAAAKFERQHMDSPDLGTDDDDKMLEVLFQGPMQKDASLSGFLPSFQHFATQAIHVGQEPEQWNSRAVVLPISLATTFKQDFPGQSSGFNYSRSGNPTRNCLEKAVAALDGAKHSLAFASGLAATITITHLLKAGDEIICMDEVYGGTNLYFRRVASEFGLKISFVDCSKTKLLEAAITPQTKLVWIETPTNPTLKLADIGACAQIVHKRGDIILVVDNTFMSAYFQRPLALGADICMCSATKYMNGHSDVVMGLVSVNSDDLNSRLRFLQNSLGAVPSPFDCYLCCRGLKTLQVRMEKHFKNGMAVARFLETNPRVEKVVYPGLPSHPQHELAKRQCSGCPGMVSFYIKGALQHAKAFLKNLKLFTLAVSLGGYESLAELPAIMTHASVPEKDRATLGINDTLIRLSVGLEDEQDLLEDLDRALKAAHPSGGGGSGGGGMAMVSEFLKQARFLENQEQEYVQAVKSYKGGPGSAVSPYPSFNVSSDVAALHKAIMVKGVDEATIIDILTKRTNAQRQQIKAAYLQENGKPLDEVLRKALTGHLEEVVLAMLKTPAQFDADELRGAMKGLGTDEDTLIEILTTRSNEQIREINRVYREELKRDLAKDITSDTSGDFRKALLALAKGDRCQDLSVNQDLADTDARALYEAGERRKGTDVNVFTTILTSRSFPHLRRVFQNYGKYSQHDMNKALDLELKGDIEKCLTTIVKCATSTPAFFAEKLYEAMKGAGTRHKALIRIMVSRSEIDMNEIKVFYQKKYGISLCQAILDETKGDYEKILVALCGGN
modifications: pre-cleavage amino acid sequence of the mCGL-AI fusion protein
B2: mCGL-AV: fusion protein of mouse cystathione-γ-lyase mutant with three mutations (SEQ ID NO:3) and annexin V; post-cleavage SEQ ID NO:10 (protein)
chain: MHHHHHHSSGLVPRGSGMKETAAAKFERQHMDSPDLGTDDDDKMLEVLFQGPMQKDASLSGFLPSFQHFATQAIHVGQEPEQWNSRAVVLPISLATTFKQDFPGQSSGFNYSRSGNPTRNCLEKAVAALDGAKHSLAFASGLAATITITHLLKAGDEIICMDEVYGGTNLYFRRVASEFGLKISFVDCSKTKLLEAAITPQTKLVWIETPTNPTLKLADIGACAQIVHKRGDIILVVDNTFMSAYFQRPLALGADICMCSATKYMNGHSDVVMGLVSVNSDDLNSRLRFLQNSLGAVPSPFDCYLCCRGLKTLQVRMEKHFKNGMAVARFLETNPRVEKVVYPGLPSHPQHELAKRQCSGCPGMVSFYIKGALQHAKAFLKNLKLFTLAVSLGGYESLAELPAIMTHASVPEKDRATLGINDTLIRLSVGLEDEQDLLEDLDRALKAAHPSGGGGSGGGGMATRGTVTDFPGFDGRADAEVLRKAMKGLGTDEDSILNLLTSRSNAQRQEIAQEFKTLFGRDLVDDLKSELTGKFEKLIVAMMKPSRLYDAYELKHALKGAGTDEKVLTEIIASRTPEELSAIKQVYEEEYGSNLEDDVVGDTSGYYQRMLVVLLQANRDPDTAIDDAQVELDAQALFQAGELKWGTDEEKFITIFGTRSVSHLRRVFDKYMTISGFQIEETIDRETSGNLEQLLLAVVKSIRSIPAYLAETLYYAMKGAGTDDHTLIRVVVSRSEIDLFNIRKEFRKNFATSLYSMIKGDTSGDYKKALLLLCGGEDD
modifications: pre-cleavage amino acid sequence of the mCGL-AV fusion protein

Experiments:
4T1 tumors = assay: Combination therapy on 4T1 tumors implanted orthotopically: tumor volume and survival; assay type: in vivo; settings: BALB/cJ mice with orthotopic 4T1 tumors; protocols of FIGS. 8 and 9; treatment day 10 to 30
Description: Selenomethionine (5 mg/kg IP) was administered 10 h post fusion protein administration. Rapamycin (5 mg/kg IP) and cyclophosphamide (10 mg/kg IP) were administered daily. Treatment began on day 10 and continued until day 30 as indicated by the arrow. Statistical significance vs. untreated is indicated by * (p<0.001).

4T1 lung metastasis = assay: Lung metastasis nodules in 4T1-TdTomato model; assay type: in vivo, BALB/c mouse; settings: after 3 weeks of treatment
Text: A Leica stereomicroscope with an automated ImageJ macro was used to quantify fluorescent nodules in the lung. […] Median nodule size on the log scale is marked. Total nodules per group (n=3 mice) is summed and shown.

[1] = tested on: CD4+ CD25+ FoxP3+ regulatory T cell; settings: comparing mCGL-AV & Sel groups with and without Cyc, after 3 weeks of treatment
Text: CD4+ CD25+ FoxP3+ regulatory T cell levels were quantified with flow cytometry and are presented as a percentage of spleen lymphocytes in BALB/c mice with 4T1 grafts after 3 weeks of treatment or healthy BALB/c mice with no tumor. Data is mean±SE (n=3 mice).

[2] = tested on: hypoxia-inducible factor-1 alpha (HIF-1-α); assay: Immunohistochemistry staining of HIF-1-α in tumor sections; assay type: in vivo, BALB/c mice; settings: after 3 weeks of treatment
Text: Immunohistochemistry staining of HIF-1-α with DAB development was quantified from whole section images of mice sacrificed after 3 weeks of treatment. Data is presented as mean±SE (n=3 mice). Statistical significance between groups is indicated by +(p<0.01) or * (p<0.001).

[3] = tested on: human MDA-MB-231 breast tumors; assay: Dissociation constants of fusion proteins on MDA-MB-231 cells grown in vitro; assay type: binding; settings: for Kd: MDA-MB-231 cells in vitro, ± SE (n = 3), read-out: Dissociation Constant (Kd) MDA-MB-231
[4] = tested on: human HAAE-1 endothelial cells; assay: Dissociation constants of fusion proteins on HAAE-1 cells grown in vitro; assay type: binding; settings: for Kd: HAAE-1 cells in vitro, ± SE (n = 3), read-out: Dissociation Constant (Kd) HAAE-1
[5] = L-methioninase enzyme activity of fusion proteins; assay type: biochemical; settings: for L-methioninase enzyme activity compared with Met-AV: versus Met-AV fusion protein
mouse 4T1 breast tumors = assay: AV- and AI-targeted mCGL enzyme prodrug therapy on orthotopic 4T1 tumors; assay type: in vivo; settings: BALB/c mice; fusion protein 10 mg/kg IP daily with selenomethionine 5 mg/kg IP
Description: FIG. 6 is a comparison of efficacy of AV- and AI-targeted mCGL enzyme prodrug therapy with selenomethionine on 4T1 tumors implanted orthotopically in BALB/c mice. mCGL-AV and mCGL-AI were administered daily (10 mg/kg IP). Selenomethionine (5 mg/kg IP) was administered 10 h post fusion protein administration. Treatment began on day 11 and continued until day 18 as indicated by the arrow. Statistical significance vs. untreated is indicated by * (p<0.001). No significant difference was observed between treatment groups. […] Data is presented as mean volume±SE (n=6).

[6] = Fusion protein specific IgG + IgM titers after daily IP administration; assay type: in vivo; settings: BALB/c mice
[7] = In vivo mCGL-AV plasma clearance (ELISA on serum); parameters: species or system mice; settings: 10 mg/kg intraperitoneal
Description: An ELISA assay for mCGL-AV was performed on serum samples at intervals following intraperitoneal administration of mCGL-AV at 10 mg/kg. Data is presented as mean±SE (n=3).
Clearance of the mCGL-AV protein from the circulation of BALB/cJ mice occurred with pharmacokinetics similar to the other enzyme prodrug systems in SCID mice.

Molecule | Median Survival (4T1 tumors) [days] | Kd [3] [nM] | Binding to MDA-MB-231 tumor cells in vitro [3] | Kd [4] [nM] | Binding to HAAE-1 human endothelial cells in vitro [4] | L-methioninase enzyme activity [5] [U/mg] | L-methioninase enzyme activity compared with Met-AV [5] | Negative effects of treatment (mouse 4T1 breast tumors) | further results
O=P1(N(CCCl)CCCl)NCCCO1 (stereo not shown) [Cyc, cyclophosphamide] | 23 |  |  |  |  |  |  |  | Lung metastatic nodules, number and size (4T1 lung metastasis): reduced numbers of metastases; Regulatory T cell levels in spleen [1]: mild reduction in regulatory T cell levels; HIF-1-α expression in tumor sections [2]: drastic reduction of HIF-1-α expression
CO[C@H]1C[C@@H]2CC[C@@H](C)[C@@](O)(O2)C(=O)C(=O)N2CCCC[C@H]2C(=O)O[C@H]([C@H](C)C[C@@H]2CC[C@@H](O)[C@H](OC)C2)CC(=O)[C@H](C)/C=C(\C)[C@@H](O)[C@@H](OC)C(=O)[C@H](C)C[C@H](C)/C=C/C=C/C=C/1C [Rap, rapamycin] | 14 |  |  |  |  |  |  |  | 
C[Se]CC[C@H](N)C(=O)O [Sel, selenomethionine] | 18 |  |  |  |  |  |  |  | 
B1 |  | 0.68 | bound strongly | 2.3 | bound strongly | 1.0 | substantially equivalent | No negative effects were observed | 
B2 | 18 | 2.5 | bound strongly | 0.11 | bound strongly | 1.3 | substantially equivalent | No negative effects were observed | Fusion protein specific IgG + IgM titer, Day 0 ([6]; daily 10 mg/kg IP, Day 0): Not detected; Fusion protein specific IgG + IgM titer, Day 7 ([6]; daily 10 mg/kg IP, Day 7): Not Detected; Fusion protein specific IgG + IgM titer, Day 14 ([6]; daily 10 mg/kg IP, Day 14): Not Detected; Fusion protein specific IgG + IgM titer, Day 21 ([6]; daily 10 mg/kg IP, Day 21): Not Detected; Immunogenicity: IgG+IgM antibody titers in the bloodstream ([6]; daily intraperitoneal administration, 21 day period): did not produce detectable IgG+IgM antibody titers; Time to complete clearance from the circulation ([7]; BALB/cJ mice): ≤ 10 h; Clearance from the circulation (time) ([7]; SCID mice, ELISA on serum): < 10 h
